From PMC10397247
Blank lines part the entries; values can stand above or below the binder they belong to.

Assays:
4H3277-bH = target: T1, 4H3277-bH; test: two-hybrid library CCNG1;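 further: natural log of median RNA to DNA barcode read ratio; higher means stronger binding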
T1 chain: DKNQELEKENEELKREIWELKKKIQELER

4H348-bH = target: T2, 4H348-bH; test: two-hybrid library CCNG1;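 further: natural log of median RNA to DNA barcode read ratio; higher means stronger binding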
T2 chain: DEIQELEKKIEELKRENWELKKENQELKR

4H40-bH = target: T3, 4H40-bH; test: two-hybrid library CCNG1;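 further: natural log of median RNA to DNA barcode read ratio; higher means stronger binding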
T3 chain: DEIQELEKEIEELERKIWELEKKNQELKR

4H319-bH = target: T4, 4H319-bH; test: two-hybrid library CCNG1;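 further: natural log of median RNA to DNA barcode read ratio; higher means stronger binding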
T4 chain: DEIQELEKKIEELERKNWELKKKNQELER

4H492-bH = target: T5, 4H492-bH; test: two-hybrid library CCNG1
T5 chain: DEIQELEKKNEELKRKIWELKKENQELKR

4H741-bH = target: T6, 4H741-bH; test: two-hybrid library CCNG1
T6 chain: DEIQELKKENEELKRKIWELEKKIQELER

4H477-bH = target: T7, 4H477-bH; test: two-hybrid library CCNG1
T7 chain: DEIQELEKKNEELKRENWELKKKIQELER

4H730-bA = target: T8, 4H730-bA; test: two-hybrid library CCNG1
T8 chain: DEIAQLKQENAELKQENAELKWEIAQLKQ

4H349-bA = target: T9, 4H349-bA; test: two-hybrid library CCNG1
T9 chain: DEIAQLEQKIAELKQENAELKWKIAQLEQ

4H949-bA = target: T10, 4H949-bA; test: two-hybrid library CCNG1
T10 chain: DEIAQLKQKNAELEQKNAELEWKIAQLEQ

4H3364-bA = target: T11, 4H3364-bA; test: two-hybrid library CCNG1
T11 chain: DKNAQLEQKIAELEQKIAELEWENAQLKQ

4H3381-bA = target: T12, 4H3381-bA; test: two-hybrid library CCNG1
T12 chain: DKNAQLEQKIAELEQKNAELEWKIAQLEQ

4H932-bA = target: T13, 4H932-bA; test: two-hybrid library CCNG1
T13 chain: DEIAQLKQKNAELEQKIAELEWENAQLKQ

4H56-bA = target: T14, 4H56-bA; test: two-hybrid library CCNG1
T14 chain: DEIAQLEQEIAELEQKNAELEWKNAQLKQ

4H3297-bA = target: T15, 4H3297-bA; test: two-hybrid library CCNG1
T15 chain: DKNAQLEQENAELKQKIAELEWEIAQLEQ

4H796-bA = target: T16, 4H796-bA; test: two-hybrid library CCNG1
T16 chain: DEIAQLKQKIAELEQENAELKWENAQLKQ

4H2774-AA = target: T17, 4H2774-AA; test: two-hybrid library CCmax; conditions: mean of both orientations
T17 chain: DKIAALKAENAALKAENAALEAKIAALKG

4H2732-AA = target: T18, 4H2732-AA; test: two-hybrid library CCmax
T18 chain: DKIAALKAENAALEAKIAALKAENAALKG

4H406-AA = target: T19, 4H406-AA; test: two-hybrid library CCmax; conditions: mean of both orientations
T19 chain: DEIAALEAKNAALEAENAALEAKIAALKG

4H3015-AA = target: T20, 4H3015-AA; test: two-hybrid library CCmax; conditions: mean of both orientations
T20 chain: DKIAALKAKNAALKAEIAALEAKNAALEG

4H3438-AA = target: T21, 4H3438-AA; test: two-hybrid library CCmax; conditions: mean of both orientations
T21 chain: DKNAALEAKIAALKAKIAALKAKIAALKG

4H56-AA = target: T22, 4H56-AA; test: two-hybrid library CCmax; conditions: mean of both orientations
T22 chain: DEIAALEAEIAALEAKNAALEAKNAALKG

4H_APH = target: T23, 4H_APH; test: two-hybrid library CCmax; conditions: mean of both orientations
T23 chain: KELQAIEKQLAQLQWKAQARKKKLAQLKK

4H3073-AA = target: T24, 4H3073-AA; test: two-hybrid library CCmax; conditions: mean of both orientations
T24 chain: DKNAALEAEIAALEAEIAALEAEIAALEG

GCN2_T = test: two-hybrid library CCmax
4H_GCN4 = test: two-hybrid library CCmax; conditions: mean of both orientations
4H_GCN4, sequence (chain, as listed by the source): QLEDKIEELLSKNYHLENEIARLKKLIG

4H_BCR = target: T25, 4H_BCR; test: two-hybrid library CCmax; conditions: mean of both orientations
T25 chain: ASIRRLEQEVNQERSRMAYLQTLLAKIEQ

4H3001-AA = target: T26, 4H3001-AA; test: two-hybrid library CCmax; conditions: mean of both orientations
T26 chain: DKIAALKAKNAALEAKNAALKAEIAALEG

4H347-AA = target: T27, 4H347-AA; test: two-hybrid library CCmax; conditions: mean of both orientations
T27 chain: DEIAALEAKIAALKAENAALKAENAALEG

4H2931-AA = target: T28, 4H2931-AA; test: two-hybrid library CCmax; conditions: mean of both orientations
T28 chain: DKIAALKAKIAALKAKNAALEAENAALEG

4H452-AA = target: T29, 4H452-AA; test: two-hybrid library CCmax; conditions: mean of both orientations
T29 chain: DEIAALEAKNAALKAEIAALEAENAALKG

4H797-bH = target: T30, 4H797-bH; test: two-hybrid library CCNG1
T30 chain: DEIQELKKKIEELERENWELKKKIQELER

4H3427-bH = target: T31, 4H3427-bH; test: two-hybrid library CCNG1
T31 chain: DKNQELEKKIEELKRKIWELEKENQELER

4H883-bH = target: T32, 4H883-bH; test: two-hybrid library CCNG1
T32 chain: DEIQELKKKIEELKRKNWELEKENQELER

4H908-bH = target: T33, 4H908-bH; test: two-hybrid library CCNG1
T33 chain: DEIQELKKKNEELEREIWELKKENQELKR

4H717-bH = target: T34, 4H717-bH; test: two-hybrid library CCNG1
T34 chain: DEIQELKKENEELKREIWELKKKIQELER

4H4001-bH = target: T35, 4H4001-bH; test: two-hybrid library CCNG1
T35 chain: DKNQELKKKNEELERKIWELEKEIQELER

4H967-bH = target: T36, 4H967-bH; test: two-hybrid library CCNG1
T36 chain: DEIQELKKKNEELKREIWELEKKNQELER

4H754-bH = target: T37, 4H754-bH; test: two-hybrid library CCNG1
T37 chain: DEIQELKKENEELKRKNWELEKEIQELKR

4H338-bH = target: T38, 4H338-bH; test: two-hybrid library CCNG1
T38 chain: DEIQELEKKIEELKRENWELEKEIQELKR

4H687-bH = target: T39, 4H687-bH; test: two-hybrid library CCNG1
T39 chain: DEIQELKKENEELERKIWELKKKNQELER

4H3855-bH = target: T40, 4H3855-bH; test: two-hybrid library CCNG1
T40 chain: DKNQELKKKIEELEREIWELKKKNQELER

4H918-bH = target: T41, 4H918-bH; test: two-hybrid library CCNG1
T41 chain: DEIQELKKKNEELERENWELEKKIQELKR

4H454-bH = target: T42, 4H454-bH; test: two-hybrid library CCNG1
T42 chain: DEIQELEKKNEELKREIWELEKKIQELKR

4H3782-bH = target: T43, 4H3782-bH; test: two-hybrid library CCNG1
T43 chain: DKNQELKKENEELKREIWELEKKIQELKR

4H568-bH = target: T44, 4H568-bH; test: two-hybrid library CCNG1
T44 chain: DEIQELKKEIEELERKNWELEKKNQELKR

4H953-bH = target: T45, 4H953-bH; test: two-hybrid library CCNG1
T45 chain: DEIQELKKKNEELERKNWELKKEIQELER

4H607-bH = target: T46, 4H607-bH; test: two-hybrid library CCNG1
T46 chain: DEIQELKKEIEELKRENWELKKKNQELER

4H3926-bA = target: T47, 4H3926-bA; test: two-hybrid library CCNG1
T47 chain: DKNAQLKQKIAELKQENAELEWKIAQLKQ

4H72-bH = target: T48, 4H72-bH; test: two-hybrid library CCNG1
T48 chain: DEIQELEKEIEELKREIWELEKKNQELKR

APC3645-AA = target: T49, APC3645-AA; test: two-hybrid library CCmax
T49 chain: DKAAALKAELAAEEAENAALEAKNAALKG

APC7099-AA = target: T50, APC7099-AA; test: two-hybrid library CCmax; conditions: mean of both orientations
T50 chain: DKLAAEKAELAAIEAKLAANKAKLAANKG

APC9096-AA = target: T51, APC9096-AA; test: two-hybrid library CCmax; conditions: mean of both orientations
T51 chain: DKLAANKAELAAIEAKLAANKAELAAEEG

APC8910-AA = target: T52, APC8910-AA; test: two-hybrid library CCmax; conditions: mean of both orientations
T52 chain: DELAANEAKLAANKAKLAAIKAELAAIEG

APC5383-AA = target: T53, APC5383-AA; test: two-hybrid library CCmax; conditions: mean of both orientations
T53 chain: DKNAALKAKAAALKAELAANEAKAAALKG

APC6108-AA = target: T54, APC6108-AA; test: two-hybrid library CCmax; conditions: mean of both orientations
T54 chain: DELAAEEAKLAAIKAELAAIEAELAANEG

APC4436-AA = target: T55, APC4436-AA; test: two-hybrid library CCmax; conditions: mean of both orientations
T55 chain: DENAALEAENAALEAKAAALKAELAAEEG

APC4264-AA = target: T56, APC4264-AA; test: two-hybrid library CCmax; conditions: mean of both orientations
T56 chain: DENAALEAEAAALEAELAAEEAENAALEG

APC8191-AA = target: T57, APC8191-AA; test: two-hybrid library CCmax; conditions: mean of both orientations
T57 chain: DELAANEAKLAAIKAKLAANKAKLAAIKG

APC4011-AA = target: T58, APC4011-AA; test: two-hybrid library CCmax; conditions: mean of both orientations
T58 chain: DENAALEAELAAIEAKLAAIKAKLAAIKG

APC9319-AA = target: T59, APC9319-AA; test: two-hybrid library CCmax; conditions: mean of both orientations
T59 chain: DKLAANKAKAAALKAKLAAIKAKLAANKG

Binder: DEIQELEKKIEELERKNWELKKKNQELER [4H319-bH]
interaction score (4H3277-bH): -0.168
interaction score (4H348-bH): 0.143
interaction score (4H40-bH): -2.01
interaction score (4H319-bH): 1.04
interaction score (4H492-bH): -0.172
interaction score (4H741-bH): 0.321
interaction score (4H477-bH): -0.71

Binder: DKIAALKAENAALEAKIAALKAENAALKG [4H2732-AA]
interaction score (4H2774-AA): -1.29
interaction score (4H2732-AA): 0.324
interaction score (4H406-AA): -1.22
interaction score (4H3015-AA): 1.14
interaction score (4H3438-AA): -1.2
interaction score (4H56-AA): -1.58
interaction score (4H_APH): -1.5
interaction score (4H3073-AA): 0.0758
interaction score (GCN2_T): -1.15
interaction score (4H_GCN4): -1.08
interaction score (4H_BCR): -2.17
interaction score (4H3001-AA): -1.46
interaction score (4H347-AA): -1.49
interaction score (4H2931-AA): -1.81
interaction score (4H452-AA): 2.3

Binder: DEIQELEKKIEELKRENWELEKEIQELKR [4H338-bH]
interaction score (4H797-bH): -0.318
interaction score (4H3427-bH): 0.373
interaction score (4H883-bH): 0.0489
interaction score (4H908-bH): -3.02
interaction score (4H717-bH): 0.186
interaction score (4H4001-bH): 0.346
interaction score (4H967-bH): 0.908
interaction score (4H754-bH): 0.366
interaction score (4H338-bH): 1.76
interaction score (4H687-bH): -0.366
interaction score (4H3855-bH): 0.141
interaction score (4H918-bH): -0.137
interaction score (4H454-bH): 1.38
interaction score (4H3782-bH): -0.321
interaction score (4H568-bH): 0.785
interaction score (4H953-bH): 1.25
interaction score (4H607-bH): 0.393
interaction score (4H3926-bA): 1.81
interaction score (4H72-bH): -1.44

More lines, now with the values ahead:

interaction score (4H730-bA): -0.992
interaction score (4H349-bA): -1.15
interaction score (4H949-bA): -0.949
interaction score (4H3364-bA): -0.887
interaction score (4H3381-bA): -0.995
interaction score (4H932-bA): -0.454
interaction score (4H56-bA): -0.874
interaction score (4H3297-bA): 1.19
interaction score (4H796-bA): -1.18
Binder: DKNAQLEQENAELKQKIAELEWEIAQLEQ [4H3297-bA]

interaction score (APC3645-AA): -1.12
interaction score (APC7099-AA): -1.63
interaction score (APC9096-AA): -1.71
interaction score (APC8910-AA): -1.79
interaction score (APC5383-AA): -1.51
interaction score (APC6108-AA): -1.68
interaction score (APC4436-AA): -2.1
interaction score (APC4264-AA): -1.56
interaction score (APC8191-AA): -1.7
interaction score (APC4011-AA): -1.34
interaction score (APC9319-AA): -1.55
Binder: DKAAALKAELAAEEAENAALEAKNAALKG [APC3645-AA]
